Measurements taken from patent publication US20140274782A1, “AFFINITY REAGENTS AND METHODS FOR DETECTION, PURIFICATION, AND PROTEOMIC ANALYSIS OF METHYLATED PROTEINS” (The Board of Trustees of the Leland Stanford Junior …, priority 2013, published 2014).

B1: CMAS: protein with methylated lysine identified in 3xMBT pull-down (protein, UniProt Q8NFW8 1-434, looked up)
N-acylneuraminate …: MDSVEKGAATSVSNPRGRPSRGRPPKLQRNSRGGQGRGVEKPPHLAALILARGGSKGIPLKNIKHLAGVPLIGWVLRAALDSGAFQSVWVSTDHDEIENVAKQFGAQVHRRSSEVSKDSSTSLDAIIEFLNYHNEVDIVGNIQATSPCLHPTDLQKVAEMIREEGYDSVFSVVRRHQFRWSEIQKGVREVTEPLNLNPAKRPRRQDWDGELYENGSFYFAKRHLIEMGYLQGGKMAYYEMRAEHSVDIDVDIDWPIAEQRVLRYGYFGKEKLKEIKLLVCNIDGCLTNGHIYVSGDQKEIISYDVKDAIGISLLKKSGIEVRLISERACSKQTLSSLKLDCKMEVSVSDKLAVVDEWRKEMGLCWKEVAYLGNEVSDEECLKRVGLSGAPADACSTAQKAVGYICKCNGGRGAIREFAEHICLLMEKVNNSCQK
B2: DDX1: protein with methylated lysine identified in 3xMBT pull-down (protein, UniProt Q92499 1-740, looked up)
ATP-dependent RNA helicase …: MAAFSEMGVMPEIAQAVEEMDWLLPTDIQAESIPLILGGGDVLMAAETGSGKTGAFSIPVIQIVYETLKDQQEGKKGKTTIKTGASVLNKWQMNPYDRGSAFAIGSDGLCCQSREVKEWHGCRATKGLMKGKHYYEVSCHDQGLCRVGWSTMQASLDLGTDKFGFGFGGTGKKSHNKQFDNYGEEFTMHDTIGCYLDIDKGHVKFSKNGKDLGLAFEIPPHMKNQALFPACVLKNAELKFNFGEEEFKFPPKDGFVALSKAPDGYIVKSQHSGNAQVTQTKFLPNAPKALIVEPSRELAEQTLNNIKQFKKYIDNPKLRELLIIGGVAARDQLSVLENGVDIVVGTPGRLDDLVSTGKLNLSQVRFLVLDEADGLLSQGYSDFINRMHNQIPQVTSDGKRLQVIVCSATLHSFDVKKLSEKIMHFPTWVDLKGEDSVPDTVHHVVVPVNPKTDRLWERLGKSHIRTDDVHAKDNTRPGANSPEMWSEAIKILKGEYAVRAIKEHKMDQAIIFCRTKIDCDNLEQYFIQQGGGPDKKGHQFSCVCLHGDRKPHERKQNLERFKKGDVRFLICTDVAARGIDIHGVPYVINVTLPDEKQNYVHRIGRVGRAERMGLAISLVATEKEKVWYHVCSSRGKGCYNTRLKEDGGCTIWYNEMQLLSEIEEHLNCTISQVEPDIKVPVDEFDGKVTYGQKRAAGGGSYKGHVDILAPTVQELAALEKEAQTSFLHLGYLPNQLFRTF
B3: GTF2I: protein with methylated lysine identified in 3xMBT pull-down (protein, UniProt P78347 2-998, looked up)
General transcription factor …: AQVAMSTLPVEDEESSESRMVVTFLMSALESMCKELAKSKAEVACIAVYETDVFVVGTERGRAFVNTRKDFQKDFVKYCVEEEEKAAEMHKMKSTTQANRMSVDAVEIETLRKTVEDYFCFCYGKALGKSTVVPVPYEKMLRDQSAVVVQGLPEGVAFKHPENYDLATLKWILENKAGISFIIKRPFLEPKKHVGGRVMVTDADRSILSPGGSCGPIKVKTEPTEDSGISLEMAAVTVKEESEDPDYYQYNIQAGPSETDDVDEKQPLSKPLQGSHHSSEGNEGTEMEVPAEDSTQHVPSETSEDPEVEVTIEDDDYSPPSKRPKANELPQPPVPEPANAGKRKVREFNFEKWNARITDLRKQVEELFERKYAQAIKAKGPVTIPYPLFQSHVEDLYVEGLPEGIPFRRPSTYGIPRLERILLAKERIRFVIKKHELLNSTREDLQLDKPASGVKEEWYARITKLRKMVDQLFCKKFAEALGSTEAKAVPYQKFEAHPNDLYVEGLPENIPFRSPSWYGIPRLEKIIQVGNRIKFVIKRPELLTHSTTEVTQPRTNTPVKEDWNVRITKLRKQVEEIFNLKFAQALGLTEAVKVPYPVFESNPEFLYVEGLPEGIPFRSPTWFGIPRLERIVRGSNKIKFVVKKPELVISYLPPGMASKINTKALQSPKRPRSPGSNSKVPEIEVTVEGPNNNNPQTSAVRTPTQTNGSNVPFKPRGREFSFEAWNAKITDLKQKVENLFNEKCGEALGLKQAVKVPFALFESFPEDFYVEGLPEGVPFRRPSTFGIPRLEKILRNKAKIKFIIKKPEMFETAIKESTSSKSPPRKINSSPNVNTTASGVEDLNIIQVTIPDDDNERLSKVEKARQLREQVNDLFSRKFGEAIGMGFPVKVPYRKITINPGCVVVDGMPPGVSFKAPSYLEISSMRRILDSAEFIKFTVIRPFPGLVINNQLVDQSESEGPVIQESAEPSQLEVPATEEIKETDGSSQIKQEPDPTW
modifications: methylated lysine
notes: protein with methylated lysine identified in 3xMBT pull-down
B4: 3×MBT: three MBT repeats of L3MBTL1 (amino acids 190-530 of accession NP—056293.4), expressed as GST or Flag fusion; methyl-lysine affinity reagent (protein)
chain: EEWSSSQPATGEKKECWSWESYLEEQKAITAPVSLFQDSQAVTHNKNGFKLGMKLEGIDPQHPSMYFILTVAEVCGYRLRLHFDGYSECHDFWVNANSPDIHPAGWFEKTGHKLQPPKGYKEEEFSWSQYLRSTRAQAAPKHLFVSQSHSPPPLGFQVGMKLEAVDRMNPSLVCVASVTDVVDSRFLVHFDNWDDTYDYWCDPSSPYIHPVGWCQKQGKPLTPPQDYPDPDNFCWEKYLEETGASAVPTWAFKVRPPHSFLVNMKLEAVDRRNPALIRVASVEDVEDHRIKIHFDGWSHGYDFWIDADHPDIHPAGWCSKTGHPLQPPLGPREPSSASPGG
modifications: left off: a dimerising Fc or GST
B5: eEF1A1: protein with methylated lysine identified in 3xMBT pull-down (protein, UniProt P68104 2-462, looked up)
Elongation factor 1-alpha 1: GKEKTHINIVVIGHVDSGKSTTTGHLIYKCGGIDKRTIEKFEKEAAEMGKGSFKYAWVLDKLKAERERGITIDISLWKFETSKYYVTIIDAPGHRDFIKNMITGTSQADCAVLIVAAGVGEFEAGISKNGQTREHALLAYTLGVKQLIVGVNKMDSTEPPYSQKRYEEIVKEVSTYIKKIGYNPDTVAFVPISGWNGDNMLEPSANMPWFKGWKVTRKDGNASGTTLLEALDCILPPTRPTDKPLRLPLQDVYKIGGIGTVPVGRVETGVLKPGMVVTFAPVNVTTEVKSVEMHHEALSEALPGDNVGFNVKNVSVKDVRRGNVAGDSKNDPPMEAAGFTAQVIILNHPGQISAGYAPVLDCHTAHIACKFAELKEKIDRRSGKKLEDGPKFLKSGDAAIVDMVPGKPMCVESFSDYPPLGRFAVRDMRQTVAVGVIKAVDKKAAGAGKVTKSAQKAQKAK
modifications: methylated lysine
notes: as for B3

Assays:
[1] = system: 3×MBT domain of L3MBTL1; test: SILAC proteomic pull-down 3×MBT vs 3×MBTD355N from 293T nuclear extract, LC-MS/MS; format: binding, human; conditions: for Protein Ratio 3xMBT/D355N: SILAC ratio, 293T nuclear extract pull-down, * = protein identified in only one labeling experiment
Procedure: Protein pull-downs were performed as described above using 600 μg of nuclear extract prepared with isotopic labels as indicated. After eluting with glutathione, 3×MBT domain was removed by dialysis into high salt and rebinding to GSH-sepharose. Bound proteins were separated by SDS-PAGE and analyzed by in-gel tryptic digest followed by LC-MS/MS. Peptides were identified using MaxQuant version 1.2.2.5 (Cox and Mann (2008) Nat. Biotechnol. 26, 1367-1372) and candidate methylated peptides were verified by manual inspection.
For stable isotope labeling by amino acids in cell culture (SILAC) experiments HEK 293T cells were grown for at least six doublings in DMEM for SILAC supplemented with 10% dialyzed fetal bovine serum (FBS), 230 mg/L L-proline and either 100 mg/L each of L-lysine and L-arginine (“light” medium), D4-L-lysine and ^13C6-L-arginine (“medium” media), or ^13C6^15N2-L-lysine and ^13C6^15N4-L-arginine (Thermo Scientific). Heavy methyl labeling used DMEM without L-Methionine or L-Cysteine supplemented with D3^13C-L-Methionine (Sigma), L-Cysteine (Sigma) and 10% dialyzed FBS.
600 μg of nuclear extract was incubated overnight rotating at 4° C. with 20 μl packed 3×MBT or 3×MBTD355N beads in a total volume of 250 μL with binding buffer. Supernatant was removed and saved for use as a loading control. Beads were washed 4×5 minutes with 0.5 mL binding buffer. Protein was eluted by incubating in 20 μL elution buffer (10 mg/mL glutathione in 50 mM Tris pH 8.0) rotating at 4° C. for four hours. Elutions from 3×MBT and 3×MBTD355N were combined and dialyzed overnight at 4° C. against 10,000× volume of dissociation buffer (50 mM Tris pH 7.5, 750 mM NaCl) in a 0.1 mL Slide-A-Lyzer MINI Dialysis Device with 3.5K molecular weight cutoff (Thermo Scientific). 80 μL of GSH-Sepharose was prepared by washing briefly three times with 0.5 mL binding buffer. Dialyzed proteins were added to the GSH-Sepharose and incubated 4 hours rotating at 4° C. to deplete the GST-fusion domains. Supernatant was transferred to a fresh 1.5 mL tube. Proteins were separated by SDS-PAGE on a 10% polyacrylamide gel and stained using SilverQuest Silver Staining Kit (Life Technologies). Lanes were excised, residual 3×MBT band was removed, and gel was diced into 0.5 mm cubes. Gel pieces were destained and processed by in-gel digestion (Carlson et al. (2011) Science Signaling 4) with sequencing grade trypsin (Promega) and the peptide sample was dried completely in a vacuum centrifuge. To prepare a loading control, 2 μL each of light and heavy nuclear extract were combined, 6 μL of 8M urea was added, proteins were denatured by adding 2 μL of 100 mM dithiothreitol in digest buffer (50 mM ammonium bicarbonate) and heating to 60° C. for 1 hour, cysteine was alkylated by adding 2.2 μL 100 mg/mL iodoacetamide in digest buffer and incubating 1 hour at room temperature in darkness, and proteins were digested by adding 80 μL trypsin (Promega) at 12.5 ng/μL in digest buffer and incubating overnight at room temperature in darkness. Digestion was stopped by adding 10 μL of 10% formic acid.
Each experiment consisted of two sets of pull-downs: “forward” labeling with 3×MBT incubated with light nuclear extract and 3×MBTD355N with medium extract, and a second “reverse” labeling experiment with the label conditions swapped. Proteins were included in the results if they were quantified in both labeling directions. To determine reproducibility the entire experiment including the label swap was duplicated using independent protein preparations and a mass spectrometer at another institution.
For 3×MBT pull-down experiment #1 the gel lane was processed and peptides were loaded off-line onto a first dimension trap column (Waters Xbridge, C18, 10 μm particle size, 100 Å pore size, 5 cm packing length, 150 μm column i.d.). […]

[2] = system: 3×MBT domain of L3MBTL1; test: Triple SILAC pull-down, 3xMBT/3xMBTD355N ratio (cytoplasmic, nuclear and chromatin fractions of 293T cells); format: binding, human; conditions: for 3xMBT/D355N UNC Heavy / 3xMBT/D355N UNC Light: SILAC ratio, pull-down 3xMBT vs 3xMBTD355N; for 3xMBT/D355N UNC Heavy: experiment with UNC0638 in heavy SILAC media; for 3xMBT/D355N UNC Light: experiment with UNC0638 in light SILAC media;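 for all read-outs here: proteins quantified with MaxQuant, requiring at least two unique peptides and quantification in both label directions, normalized to the mean of proteins from a digested loading control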

| Molecule | Protein Ratio 3xMBT/D355N [1] | 3xMBT/D355N UNC Heavy [2] | 3xMBT/D355N UNC Light [2] | amount of protein captured from nucleoplasmic extract ([1]; 293T cells, silver stain, relative to the other domain) | number of the 544 identified proteins enriched at 2-fold versus the other domain ([1]; SILAC) | percentage of the 544 identified proteins enriched at 2-fold versus the other domain ([1]; SILAC) | number of proteins enriched by 3×MBT compared to 3×MBTD355N ([2]; two biological replicates) |
| --- | --- | --- | --- | --- | --- | --- | --- |
| B1 | 4.2 | 2.71 log base 2 | 2.86 log base 2 |  |  |  |  |
| B2 | 11.2 | 3.07 log base 2 | 3.64 log base 2 |  |  |  |  |
| B3 | 1.5 | 3.02 log base 2 | 2.75 log base 2 |  |  |  |  |
| B4 |  |  |  | captured more proteins | 313 | 57.5% | 370 |
| B5 | 5.2 | 3.08 log base 2 | 2.87 log base 2 |  |  |  |  |
